These results are taken from patent US20170044609.

Like-named read-outs stand apart in the source and are kept apart here.

Data set [1] addresses SHARP (SPEN) (Mus musculus) (UniProt Q62504). The note with it: UV crosslinked RIP-qPCR.
A further data set has as its system RALY. To be noted: UV crosslinked RIP; RAP-MS.
The test system of another data set is CELF1 (Mus musculus). The note with it: UV crosslinked RIP; RAP-MS.
For the next data set, the system named is hnRNPC. The note with it: UV crosslinked RIP; RAP-MS.
The next data set deals with RBM15 (Mus musculus). To be noted: UV crosslinked RIP; RAP-MS.
The subject of another data set is MYEF2 (Mus musculus). The note with it: UV crosslinked RIP; RAP-MS.
The next data set relates to PTBP1 (Mus musculus). To be noted: UV crosslinked RIP; CLIP site 10859-11344.
For data set [2], the system named is ΔRS-LBR deletion of amino acids 71-90 (Homo sapiens). The note with it: FLAG IP RT-qPCR, UV crosslinked.
For data set [3], the system named is SAF-A (hnRNPU) (Mus musculus). To be noted: RAP-MS, UV crosslinked, denaturing.
The next data set relates to hnRNPM (Mus musculus). The note with it: RAP-MS, UV crosslinked, denaturing.

UniProt Q62504, sequence (Q62504 whole entry): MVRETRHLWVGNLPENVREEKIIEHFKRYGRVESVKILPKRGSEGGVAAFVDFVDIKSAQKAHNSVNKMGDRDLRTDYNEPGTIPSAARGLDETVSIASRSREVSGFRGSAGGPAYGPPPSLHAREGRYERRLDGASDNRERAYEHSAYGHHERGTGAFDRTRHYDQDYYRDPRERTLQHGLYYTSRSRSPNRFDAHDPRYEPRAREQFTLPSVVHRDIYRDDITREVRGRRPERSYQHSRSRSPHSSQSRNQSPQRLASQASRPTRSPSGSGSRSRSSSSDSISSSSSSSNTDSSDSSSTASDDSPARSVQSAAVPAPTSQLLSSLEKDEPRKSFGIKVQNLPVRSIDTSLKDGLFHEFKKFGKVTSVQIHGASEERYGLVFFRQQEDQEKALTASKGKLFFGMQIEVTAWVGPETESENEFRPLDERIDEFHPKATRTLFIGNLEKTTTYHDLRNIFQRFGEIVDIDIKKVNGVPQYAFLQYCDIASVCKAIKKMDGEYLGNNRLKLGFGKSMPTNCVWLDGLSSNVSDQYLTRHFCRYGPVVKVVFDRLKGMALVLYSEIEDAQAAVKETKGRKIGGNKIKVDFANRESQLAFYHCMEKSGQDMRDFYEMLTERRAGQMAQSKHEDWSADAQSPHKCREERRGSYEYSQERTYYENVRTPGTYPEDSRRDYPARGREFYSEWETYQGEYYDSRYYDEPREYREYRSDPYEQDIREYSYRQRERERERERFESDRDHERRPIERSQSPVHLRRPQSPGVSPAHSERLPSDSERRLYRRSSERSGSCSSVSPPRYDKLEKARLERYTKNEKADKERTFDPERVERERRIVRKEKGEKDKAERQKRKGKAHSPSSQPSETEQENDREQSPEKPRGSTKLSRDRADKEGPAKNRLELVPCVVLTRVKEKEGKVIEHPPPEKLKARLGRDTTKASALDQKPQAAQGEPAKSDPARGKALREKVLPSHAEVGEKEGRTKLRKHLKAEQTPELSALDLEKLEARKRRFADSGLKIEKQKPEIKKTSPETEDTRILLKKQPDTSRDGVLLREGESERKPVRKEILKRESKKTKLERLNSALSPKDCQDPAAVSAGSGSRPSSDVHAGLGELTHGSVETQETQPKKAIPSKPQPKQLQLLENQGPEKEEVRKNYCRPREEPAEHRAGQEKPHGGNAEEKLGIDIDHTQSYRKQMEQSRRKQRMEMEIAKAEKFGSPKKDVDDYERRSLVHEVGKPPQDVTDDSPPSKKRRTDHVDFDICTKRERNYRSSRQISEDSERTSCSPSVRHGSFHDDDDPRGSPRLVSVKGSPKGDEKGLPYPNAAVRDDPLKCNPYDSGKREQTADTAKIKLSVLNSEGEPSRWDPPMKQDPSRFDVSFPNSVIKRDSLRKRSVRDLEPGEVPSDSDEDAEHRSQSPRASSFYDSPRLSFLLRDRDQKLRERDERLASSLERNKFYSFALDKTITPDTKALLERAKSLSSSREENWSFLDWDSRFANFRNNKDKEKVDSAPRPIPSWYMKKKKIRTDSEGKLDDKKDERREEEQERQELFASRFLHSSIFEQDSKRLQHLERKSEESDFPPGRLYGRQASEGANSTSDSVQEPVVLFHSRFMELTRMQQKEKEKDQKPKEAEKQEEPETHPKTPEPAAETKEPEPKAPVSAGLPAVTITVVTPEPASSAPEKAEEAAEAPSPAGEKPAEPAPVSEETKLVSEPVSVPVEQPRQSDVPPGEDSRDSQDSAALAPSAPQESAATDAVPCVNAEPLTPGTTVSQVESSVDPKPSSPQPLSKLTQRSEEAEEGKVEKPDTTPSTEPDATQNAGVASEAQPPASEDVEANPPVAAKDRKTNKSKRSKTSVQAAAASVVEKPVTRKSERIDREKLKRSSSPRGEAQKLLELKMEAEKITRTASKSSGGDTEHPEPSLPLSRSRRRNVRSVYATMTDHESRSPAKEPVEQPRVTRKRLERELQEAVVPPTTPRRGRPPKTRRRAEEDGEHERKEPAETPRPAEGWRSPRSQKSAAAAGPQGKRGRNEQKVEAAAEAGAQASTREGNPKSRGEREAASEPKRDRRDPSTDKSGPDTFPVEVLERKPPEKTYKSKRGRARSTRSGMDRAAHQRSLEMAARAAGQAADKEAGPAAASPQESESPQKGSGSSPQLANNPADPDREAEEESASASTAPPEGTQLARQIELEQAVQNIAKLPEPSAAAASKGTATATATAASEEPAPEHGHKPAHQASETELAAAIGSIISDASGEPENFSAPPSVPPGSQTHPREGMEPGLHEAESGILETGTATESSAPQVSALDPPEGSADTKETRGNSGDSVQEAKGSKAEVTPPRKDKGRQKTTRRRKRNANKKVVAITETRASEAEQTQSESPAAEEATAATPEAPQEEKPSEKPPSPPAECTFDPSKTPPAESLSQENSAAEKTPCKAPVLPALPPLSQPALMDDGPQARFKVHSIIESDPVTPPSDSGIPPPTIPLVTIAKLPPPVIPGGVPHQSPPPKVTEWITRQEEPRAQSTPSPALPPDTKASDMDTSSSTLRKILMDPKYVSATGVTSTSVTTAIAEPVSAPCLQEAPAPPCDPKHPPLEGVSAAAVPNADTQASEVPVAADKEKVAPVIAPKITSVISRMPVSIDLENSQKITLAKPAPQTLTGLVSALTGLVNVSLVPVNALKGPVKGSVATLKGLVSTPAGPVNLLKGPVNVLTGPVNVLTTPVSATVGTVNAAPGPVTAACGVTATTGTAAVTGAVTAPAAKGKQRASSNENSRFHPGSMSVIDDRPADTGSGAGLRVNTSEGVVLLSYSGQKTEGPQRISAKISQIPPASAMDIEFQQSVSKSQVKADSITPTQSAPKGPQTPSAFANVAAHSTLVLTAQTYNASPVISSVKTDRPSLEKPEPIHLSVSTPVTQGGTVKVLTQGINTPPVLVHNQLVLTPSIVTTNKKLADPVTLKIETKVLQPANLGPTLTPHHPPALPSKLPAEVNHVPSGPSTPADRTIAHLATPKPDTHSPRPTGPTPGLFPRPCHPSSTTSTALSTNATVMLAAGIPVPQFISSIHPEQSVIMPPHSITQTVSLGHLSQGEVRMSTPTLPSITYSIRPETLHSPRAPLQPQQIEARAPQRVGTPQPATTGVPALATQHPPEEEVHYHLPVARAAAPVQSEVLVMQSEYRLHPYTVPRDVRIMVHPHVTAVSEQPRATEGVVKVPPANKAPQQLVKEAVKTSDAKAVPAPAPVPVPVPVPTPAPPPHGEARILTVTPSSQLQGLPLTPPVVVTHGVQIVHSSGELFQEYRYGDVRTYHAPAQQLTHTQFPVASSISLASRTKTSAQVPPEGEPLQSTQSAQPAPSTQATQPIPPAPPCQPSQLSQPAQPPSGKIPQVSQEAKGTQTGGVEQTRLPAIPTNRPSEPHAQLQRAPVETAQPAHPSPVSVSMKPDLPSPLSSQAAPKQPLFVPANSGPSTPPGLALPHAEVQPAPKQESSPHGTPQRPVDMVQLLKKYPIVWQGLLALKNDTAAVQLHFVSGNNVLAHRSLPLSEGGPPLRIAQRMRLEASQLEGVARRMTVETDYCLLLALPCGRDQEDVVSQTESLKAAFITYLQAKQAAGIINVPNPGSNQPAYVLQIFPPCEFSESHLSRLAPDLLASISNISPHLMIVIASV

Turning to 45S pre-rRNA, in data set [1] (female ES cells), the binding signal (fold over IgG) is < 1.

On to Neat1 lncRNA, for which the binding signal (fold over IgG) in data set [1] (female ES cells) was < 1.

For Xist lncRNA, the binding signal (fold over input) in the data set on RALY, in the data set with CELF1 (Mus musculus), with hnRNPC, with RBM15 (Mus musculus), in the data set with MYEF2 (Mus musculus) and in the data set with PTBP1 (Mus musculus) was > 4 in each case. The binding signal (fold over IgG) in [1] (RA-treated female ES cells, CLIP site 317-1056) was > 45. The binding signal (% reduced binding) in [2] was determined as 97. Also, the binding signal (SILAC ratio Xist/U1) (in data set [3]; with hnRNPM (Mus musculus)) was > 3 throughout.
